B1: mRNA-splicing (parent)
chain: AGUUGCUGCUGGGAGCUCCAGCACAGUGAAAUGGACAGAAGGGCAGAGCAA

Variants of: B1
Experiment: exon inclusion enrichment index; higher = more inclusion; WT1 exon 5 minigene, HEK293

Variant | exon inclusion enrichment index
U3C G5C C6G U7C U10C | 1.22
U3C G5C C6U G8C C9U U10C | 0.338
U3C G5U G8U C9U | 0.0225
U3C U4A | 0.0261
U3C U4A C6A U7A C9A U10A | 0.528
U3C U4A C6A U7C C9A U10C | 2.21
U3C U4A G5A C6G U7G C9A | 0.0853
U3C U4A G5A C6U U7A G8U C9A | 0.17
U3C U4A G5A U7C G8A U10C | 2.12
U3C U4A G5C C6A U7C G8A U10A | 0.0745
U3C U4A G5C C6G U7C U10C | 2.55
U3C U4A G5C C6U G8C C9U U10C | 1.61
U3C U4A G5U G8U C9U | 0.356
U3C U4C | 0.208
U3C U4C C6A U7A C9A U10A | 1.44
U3C U4C C6A U7C C9A U10C | 4.17
U3C U4C G5A C6G U7G C9A | 0.127
U3C U4C G5A C6U U7A G8U C9A | 0.481
U3C U4C G5A U7C G8A U10C | 2.69
U3C U4C G5C C6A U7C G8A U10A | 0.144
U3C U4C G5C C6G U7C U10C | 2.61
U3C U4C G5C C6U G8C C9U U10C | 0.521
U3C U4C G5U G8U C9U | 0.335
U3C U4G | 0.0956

Variant | exon inclusion enrichment index
U3C U4G C6A U7A C9A U10A | 0.667
U3C U4G C6A U7C C9A U10C | 2.89
U3C U4G G5A C6G U7G C9A | 0.106
U3C U4G G5A C6U U7A G8U C9A | 0.312
U3C U4G G5A U7C G8A U10C | 2.97
U3C U4G G5C C6A U7C G8A U10A | 0.239
U3C U4G G5C C6G U7C U10C | 1.31
U3C U4G G5C C6U G8C C9U U10C | 1.28
U3C U4G G5U G8U C9U | 0.61
U3G | 0.0194
U3G C6A U7A C9A U10A | 0.238
U3G C6A U7C C9A U10C | 0.785
U3G G5A C6G U7G C9A | 0.0125
U3G G5A C6U U7A G8U C9A | 0.0113
U3G G5A U7C G8A U10C | 0.68
U3G G5C C6A U7C G8A U10A | 0.043
U3G G5C C6G U7C U10C | 1.32
U3G G5C C6U G8C C9U U10C | 0.696
U3G G5U G8U C9U | 0.0452
U3G U4A | 0.0184
U3G U4A C6A U7A C9A U10A | 0.213
U3G U4A C6A U7C C9A U10C | 1.52
U3G U4A G5A C6G U7G C9A | 0.0126
U3G U4A G5A C6U U7A G8U C9A | 0.0777

Variant | exon inclusion enrichment index
U3G U4A G5A U7C G8A U10C | 2.25
U3G U4A G5C C6A U7C G8A U10A | 0.0657
U3G U4A G5C C6G U7C U10C | 2.08
U3G U4A G5C C6U G8C C9U U10C | 0.91
U3G U4A G5U G8U C9U | 0.0683
U3G U4C | 0.16
U3G U4C C6A U7A C9A U10A | 1.04
U3G U4C C6A U7C C9A U10C | 3.64
U3G U4C G5A C6G U7G C9A | 0.0394
U3G U4C G5A C6U U7A G8U C9A | 0.122
U3G U4C G5A U7C G8A U10C | 2.37
U3G U4C G5C C6A U7C G8A U10A | 0.139
U3G U4C G5C C6G U7C U10C | 2.03
U3G U4C G5C C6U G8C C9U U10C | 1.03
U3G U4C G5U G8U C9U | 0.0275
U3G U4G | 0.00805
U3G U4G C6A U7A C9A U10A | 0.0489
U3G U4G C6A U7C C9A U10C | 1.23
U3G U4G G5A C6G U7G C9A | 0.00966
U3G U4G G5A C6U U7A G8U C9A | 0.0433
U3G U4G G5A U7C G8A U10C | 1.93
U3G U4G G5C C6A U7C G8A U10A | 0.0147
U3G U4G G5C C6G U7C U10C | 0.836
U3G U4G G5C C6U G8C C9U U10C | 0.152

Variant | exon inclusion enrichment index
U3G U4G G5U G8U C9U | 0.0141
U4A | 0.00347
U4A C6A U7A C9A U10A | 0.122
U4A C6A U7C C9A U10C | 1.35
U4A C6A U7C G8A U10A | 0.0102
U4A C6G U7C U10C | 0.262
U4A C6G U7G C9A | 0.00639
U4A C6U G8C C9U U10C | 0.0827
U4A C6U U7A G8U C9A | 0.00525
U4A G5A | 0.00706
U4A G5A C6A U7A C9A U10A | 0.0853
U4A G5A C6A U7C C9A U10C | 2.23
U4A G5A C6A U7C G8A U10A | 0.0681
U4A G5A C6G U7C U10C | 1.18
U4A G5A C6G U7G C9A | 0.0163
U4A G5A C6U G8C C9U U10C | 0.574
U4A G5A C6U U7A G8U C9A | 0.0542
U4A G5A G8U C9U | 0.144
U4A G5A U7C G8A U10C | 2
U4A G5C | 0.183
U4A G5C C6A U7A C9A U10A | 0.526
U4A G5C C6A U7C C9A U10C | 2.5
U4A G5C C6A U7C G8A U10A | 0.0584
U4A G5C C6G U7C U10C | 2.75

Variant | exon inclusion enrichment index
U4A G5C C6G U7G C9A | 0.594
U4A G5C C6U G8C C9U U10C | 1.68
U4A G5C C6U U7A G8U C9A | 0.177
U4A G5C G8U C9U | 0.718
U4A G5C U7C G8A U10C | 2.34
U4A G5U | 0.0569
U4A G5U C6A U7A C9A U10A | 0.0651
U4A G5U C6A U7C C9A U10C | 2.45
U4A G5U C6A U7C G8A U10A | 0.0592
U4A G5U C6G U7C U10C | 1.96
U4A G5U C6G U7G C9A | 0.0707
U4A G5U C6U G8C C9U U10C | 0.723
U4A G5U C6U U7A G8U C9A | 0.0503
U4A G5U G8U C9U | 0.252
U4A G5U U7C G8A U10C | 2.36
U4A G8U C9U | 0.0172
U4A U7C G8A U10C | 0.474
U4C | 0.365
U4C C6A U7A C9A U10A | 1.51
U4C C6A U7C C9A U10C | 4.65
U4C C6A U7C G8A U10A | 1.12
U4C C6G U7C U10C | 3.95
U4C C6G U7G C9A | 0.355
U4C C6U G8C C9U U10C | 2.37

Variant | exon inclusion enrichment index
U4C C6U U7A G8U C9A | 1.12
U4C G5A | 0.0447
U4C G5A C6A U7A C9A U10A | 0.662
U4C G5A C6A U7C C9A U10C | 4.23
U4C G5A C6A U7C G8A U10A | 0.437
U4C G5A C6G U7C U10C | 3.53
U4C G5A C6G U7G C9A | 0.0522
U4C G5A C6U G8C C9U U10C | 1.56
U4C G5A C6U U7A G8U C9A | 0.47
U4C G5A G8U C9U | 0.77
U4C G5A U7C G8A U10C | 3.18
U4C G5C | 0.153
U4C G5C C6A U7A C9A U10A | 1.37
U4C G5C C6A U7C C9A U10C | 3.54
U4C G5C C6A U7C G8A U10A | 0.286
U4C G5C C6G U7C U10C | 3.81
U4C G5C C6G U7G C9A | 2.21
U4C G5C C6U G8C C9U U10C | 2.17
U4C G5C C6U U7A G8U C9A | 0.704
U4C G5C G8U C9U | 0.112
U4C G5C U7C G8A U10C | 1.51
U4C G5U | 0.105
U4C G5U C6A U7A C9A U10A | 0.296
U4C G5U C6A U7C C9A U10C | 4.16

Variant | exon inclusion enrichment index
U4C G5U C6A U7C G8A U10A | 0.501
U4C G5U C6G U7C U10C | 4.01
U4C G5U C6G U7G C9A | 0.461
U4C G5U C6U G8C C9U U10C | 1.08
U4C G5U C6U U7A G8U C9A | 0.269
U4C G5U G8U C9U | 0.371
U4C G5U U7C G8A U10C | 1.83
U4C G8U C9U | 2.06
U4C U7C G8A U10C | 3.91
U4G | 0.0792
U4G C6A U7A C9A U10A | 0.488
U4G C6A U7C C9A U10C | 2.45
U4G C6A U7C G8A U10A | 0.348
U4G C6G U7C U10C | 0.838
U4G C6G U7G C9A | 0.0187
U4G C6U G8C C9U U10C | 0.778
U4G C6U U7A G8U C9A | 0.0761
U4G G5A | 0.101
U4G G5A C6A U7A C9A U10A | 0.315
U4G G5A C6A U7C C9A U10C | 3.42
U4G G5A C6A U7C G8A U10A | 0.403
U4G G5A C6G U7C U10C | 2.22
U4G G5A C6G U7G C9A | 0.00812

— the RNAGym collection of RNA variant scans (doi:10.1101/gr.219683.116)
